Measurements reported in patent US20260167699A1 (Chugai, published 2026).

B1: GpH7-A5/GpH7-B3 variant L234_01G/GpL16-k0 (antibody, human IgG1, kappa)
heavy 1: not shown
heavy 2: not shown
light: DIVMTQSPLSLPVTPGEPASISCQASESLVHSNRNTYLHWYLQKPGQSPQLLIYKVSNRFSGVPDRFSGSGSGTDFTLKISRVEAEDVGVYYCSQNTHVPPTFGQGTKVEIERTVAAPSVFIFPPSDEQLKSGTASVVCLLNNFYPREAKVQWKVDNALQSGNSQESVTEQDSKDSTYSLSSTLTLSKADYEKHKVYACEVTHQGLSSPVTKSFNRGEC
notes: heterodimerized IgG1, one H chain mutated; also called He Ab
B2: GpH7-A5/GpH7-B3 variant L234_19Q/GpL16-k0 (antibody, human IgG1, kappa)
heavy 1: not shown
heavy 2: not shown
light: DIVMTQSPLSLPVTPGEPASISCQASESLVHSNRNTYLHWYLQKPGQSPQLLIYKVSNRFSGVPDRFSGSGSGTDFTLKISRVEAEDVGVYYCSQNTHVPPTFGQGTKVEIERTVAAPSVFIFPPSDEQLKSGTASVVCLLNNFYPREAKVQWKVDNALQSGNSQESVTEQDSKDSTYSLSSTLTLSKADYEKHKVYACEVTHQGLSSPVTKSFNRGEC
notes: as for B1
B3: GpH7-A5/GpH7-B3 variant L234_02A/GpL16-k0 (antibody, human IgG1, kappa)
heavy 1: not shown
heavy 2: not shown
light: DIVMTQSPLSLPVTPGEPASISCQASESLVHSNRNTYLHWYLQKPGQSPQLLIYKVSNRFSGVPDRFSGSGSGTDFTLKISRVEAEDVGVYYCSQNTHVPPTFGQGTKVEIERTVAAPSVFIFPPSDEQLKSGTASVVCLLNNFYPREAKVQWKVDNALQSGNSQESVTEQDSKDSTYSLSSTLTLSKADYEKHKVYACEVTHQGLSSPVTKSFNRGEC
notes: as for B1
B4: GpH7-A5/GpH7-B3 variant L234_04F/GpL16-k0 (antibody, human IgG1, kappa)
heavy 1: not shown
heavy 2: not shown
light: DIVMTQSPLSLPVTPGEPASISCQASESLVHSNRNTYLHWYLQKPGQSPQLLIYKVSNRFSGVPDRFSGSGSGTDFTLKISRVEAEDVGVYYCSQNTHVPPTFGQGTKVEIERTVAAPSVFIFPPSDEQLKSGTASVVCLLNNFYPREAKVQWKVDNALQSGNSQESVTEQDSKDSTYSLSSTLTLSKADYEKHKVYACEVTHQGLSSPVTKSFNRGEC
notes: as for B1
B5: GpH7-A5/GpH7-B3 variant L234_10E/GpL16-k0 (antibody, human IgG1, kappa)
heavy 1: not shown
heavy 2: not shown
light: DIVMTQSPLSLPVTPGEPASISCQASESLVHSNRNTYLHWYLQKPGQSPQLLIYKVSNRFSGVPDRFSGSGSGTDFTLKISRVEAEDVGVYYCSQNTHVPPTFGQGTKVEIERTVAAPSVFIFPPSDEQLKSGTASVVCLLNNFYPREAKVQWKVDNALQSGNSQESVTEQDSKDSTYSLSSTLTLSKADYEKHKVYACEVTHQGLSSPVTKSFNRGEC
notes: as for B1
B6: GpH7-A5/GpH7-B3 variant L234_03V/GpL16-k0 (antibody, human IgG1, kappa)
heavy 1: not shown
heavy 2: not shown
light: DIVMTQSPLSLPVTPGEPASISCQASESLVHSNRNTYLHWYLQKPGQSPQLLIYKVSNRFSGVPDRFSGSGSGTDFTLKISRVEAEDVGVYYCSQNTHVPPTFGQGTKVEIERTVAAPSVFIFPPSDEQLKSGTASVVCLLNNFYPREAKVQWKVDNALQSGNSQESVTEQDSKDSTYSLSSTLTLSKADYEKHKVYACEVTHQGLSSPVTKSFNRGEC
notes: as for B1
B7: GpH7-A5/GpH7-B3 variant L234_06M/GpL16-k0 (antibody, human IgG1, kappa)
heavy 1: not shown
heavy 2: not shown
light: DIVMTQSPLSLPVTPGEPASISCQASESLVHSNRNTYLHWYLQKPGQSPQLLIYKVSNRFSGVPDRFSGSGSGTDFTLKISRVEAEDVGVYYCSQNTHVPPTFGQGTKVEIERTVAAPSVFIFPPSDEQLKSGTASVVCLLNNFYPREAKVQWKVDNALQSGNSQESVTEQDSKDSTYSLSSTLTLSKADYEKHKVYACEVTHQGLSSPVTKSFNRGEC
notes: as for B1
B8: GpH7-A5/GpH7-B3 variant L234_13S/GpL16-k0 (antibody, human IgG1, kappa)
heavy 1: not shown
heavy 2: not shown
light: DIVMTQSPLSLPVTPGEPASISCQASESLVHSNRNTYLHWYLQKPGQSPQLLIYKVSNRFSGVPDRFSGSGSGTDFTLKISRVEAEDVGVYYCSQNTHVPPTFGQGTKVEIERTVAAPSVFIFPPSDEQLKSGTASVVCLLNNFYPREAKVQWKVDNALQSGNSQESVTEQDSKDSTYSLSSTLTLSKADYEKHKVYACEVTHQGLSSPVTKSFNRGEC
notes: as for B1
B9: GpH7-A5/GpH7-B3 variant L234_15Y/GpL16-k0 (antibody, human IgG1, kappa)
heavy 1: not shown
heavy 2: not shown
light: DIVMTQSPLSLPVTPGEPASISCQASESLVHSNRNTYLHWYLQKPGQSPQLLIYKVSNRFSGVPDRFSGSGSGTDFTLKISRVEAEDVGVYYCSQNTHVPPTFGQGTKVEIERTVAAPSVFIFPPSDEQLKSGTASVVCLLNNFYPREAKVQWKVDNALQSGNSQESVTEQDSKDSTYSLSSTLTLSKADYEKHKVYACEVTHQGLSSPVTKSFNRGEC
notes: as for B1
B10: GpH7-A5/GpH7-B3 variant L234_16H/GpL16-k0 (antibody, human IgG1, kappa)
heavy 1: not shown
heavy 2: not shown
light: DIVMTQSPLSLPVTPGEPASISCQASESLVHSNRNTYLHWYLQKPGQSPQLLIYKVSNRFSGVPDRFSGSGSGTDFTLKISRVEAEDVGVYYCSQNTHVPPTFGQGTKVEIERTVAAPSVFIFPPSDEQLKSGTASVVCLLNNFYPREAKVQWKVDNALQSGNSQESVTEQDSKDSTYSLSSTLTLSKADYEKHKVYACEVTHQGLSSPVTKSFNRGEC
notes: as for B1
B11: GpH7-A5/GpH7-B3 variant L234_18N/GpL16-k0 (antibody, human IgG1, kappa)
heavy 1: not shown
heavy 2: not shown
light: DIVMTQSPLSLPVTPGEPASISCQASESLVHSNRNTYLHWYLQKPGQSPQLLIYKVSNRFSGVPDRFSGSGSGTDFTLKISRVEAEDVGVYYCSQNTHVPPTFGQGTKVEIERTVAAPSVFIFPPSDEQLKSGTASVVCLLNNFYPREAKVQWKVDNALQSGNSQESVTEQDSKDSTYSLSSTLTLSKADYEKHKVYACEVTHQGLSSPVTKSFNRGEC
notes: as for B1
B12: GpH7-A5/GpH7-B3 variant L234_09D/GpL16-k0 (antibody, human IgG1, kappa)
heavy 1: not shown
heavy 2: not shown
light: DIVMTQSPLSLPVTPGEPASISCQASESLVHSNRNTYLHWYLQKPGQSPQLLIYKVSNRFSGVPDRFSGSGSGTDFTLKISRVEAEDVGVYYCSQNTHVPPTFGQGTKVEIERTVAAPSVFIFPPSDEQLKSGTASVVCLLNNFYPREAKVQWKVDNALQSGNSQESVTEQDSKDSTYSLSSTLTLSKADYEKHKVYACEVTHQGLSSPVTKSFNRGEC
notes: as for B1
B13: GpH7-A5/GpH7-B3 variant L234_14T/GpL16-k0 (antibody, human IgG1, kappa)
heavy 1: not shown
heavy 2: not shown
light: DIVMTQSPLSLPVTPGEPASISCQASESLVHSNRNTYLHWYLQKPGQSPQLLIYKVSNRFSGVPDRFSGSGSGTDFTLKISRVEAEDVGVYYCSQNTHVPPTFGQGTKVEIERTVAAPSVFIFPPSDEQLKSGTASVVCLLNNFYPREAKVQWKVDNALQSGNSQESVTEQDSKDSTYSLSSTLTLSKADYEKHKVYACEVTHQGLSSPVTKSFNRGEC
notes: as for B1
B14: GpH7-A5/GpH7-B3 variant L234_20W/GpL16-k0 (antibody, human IgG1, kappa)
heavy 1: not shown
heavy 2: not shown
light: DIVMTQSPLSLPVTPGEPASISCQASESLVHSNRNTYLHWYLQKPGQSPQLLIYKVSNRFSGVPDRFSGSGSGTDFTLKISRVEAEDVGVYYCSQNTHVPPTFGQGTKVEIERTVAAPSVFIFPPSDEQLKSGTASVVCLLNNFYPREAKVQWKVDNALQSGNSQESVTEQDSKDSTYSLSSTLTLSKADYEKHKVYACEVTHQGLSSPVTKSFNRGEC
notes: as for B1
B15: GpH7-A5/GpH7-B3 variant L234_07I/GpL16-k0 (antibody, human IgG1, kappa)
heavy 1: not shown
heavy 2: not shown
light: DIVMTQSPLSLPVTPGEPASISCQASESLVHSNRNTYLHWYLQKPGQSPQLLIYKVSNRFSGVPDRFSGSGSGTDFTLKISRVEAEDVGVYYCSQNTHVPPTFGQGTKVEIERTVAAPSVFIFPPSDEQLKSGTASVVCLLNNFYPREAKVQWKVDNALQSGNSQESVTEQDSKDSTYSLSSTLTLSKADYEKHKVYACEVTHQGLSSPVTKSFNRGEC
notes: as for B1
B16: GpH7-A5/GpH7-B3 variant L234_05P/GpL16-k0 (antibody, human IgG1, kappa)
heavy 1: not shown
heavy 2: not shown
light: DIVMTQSPLSLPVTPGEPASISCQASESLVHSNRNTYLHWYLQKPGQSPQLLIYKVSNRFSGVPDRFSGSGSGTDFTLKISRVEAEDVGVYYCSQNTHVPPTFGQGTKVEIERTVAAPSVFIFPPSDEQLKSGTASVVCLLNNFYPREAKVQWKVDNALQSGNSQESVTEQDSKDSTYSLSSTLTLSKADYEKHKVYACEVTHQGLSSPVTKSFNRGEC
notes: as for B1

How the values were obtained:
Assay in all cases: SPR (Biacore), binding relative to GpH7-A5/GpH7-B3/GpL16-k0 x100;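 also: surface plasmon resonance at 25 °C, antibody captured on a sensor chip and soluble FcγR flowed over it in HBS-EP+ running buffer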
FcγRIIa(H) = molecular target: T1, FcγRIIa(H) (human, UniProt P12318 34-217)
T1 construct: extracellular domain; also called FcγRIIa H type; 2aH
T1 sequence: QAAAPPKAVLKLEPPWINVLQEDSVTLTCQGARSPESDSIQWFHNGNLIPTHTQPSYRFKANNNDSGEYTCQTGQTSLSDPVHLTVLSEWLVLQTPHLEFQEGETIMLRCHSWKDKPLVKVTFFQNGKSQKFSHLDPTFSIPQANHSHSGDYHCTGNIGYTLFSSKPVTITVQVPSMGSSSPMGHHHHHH
Description: (§1) The antibody of interest was analyzed for its interaction with FcγR using a BiaCore™ T100, BiaCore™ A100, or BiaCore™ 4000 surface plasmon resonance system (GE Healthcare Japan Corp.). The running buffer used was HBS-EP+ (GE Healthcare Japan Corp.). The assay temperature was set to 25° C. The sensor chips used were: a chip prepared by immobilizing antigenic peptides onto Series S Sensor Chip CM5 (GE Healthcare Japan Corp.) by the amine coupling method; a chip prepared by immobilizing antigenic peptides biotinylated in advance onto Series S Sensor Chip SA (certified) (GE Healthcare Japan Corp.) through their interaction; a chip prepared by immobilizing protein L (ACTIGEN, BioVision, Inc.) onto Series S Sensor Chip CM5 (GE Healthcare Japan Corp.); and a chip prepared by immobilizing protein A/G (Thermo Fisher Scientific K.K.) onto Series S Sensor Chip CM5 (GE Healthcare Japan Corp.). The antibody of interest was captured onto any of these chips and allowed to interact with FcγR diluted with a running buffer. The antibody captured on the chip was washed off through the reaction of 10 mM glycine-HCl (pH 1.5) to regenerate the chip, which was repetitively used.

FcγRIa = molecular target: T2, FcγRIa (human, UniProt P12314 16-292)
T2 construct: extracellular domain; also called 1a
Description: as §1

FcγRIIb = molecular target: T3, FcγRIIb (human, UniProt P31994 43-217)
T3 construct: extracellular domain; also called 2b
T3 sequence: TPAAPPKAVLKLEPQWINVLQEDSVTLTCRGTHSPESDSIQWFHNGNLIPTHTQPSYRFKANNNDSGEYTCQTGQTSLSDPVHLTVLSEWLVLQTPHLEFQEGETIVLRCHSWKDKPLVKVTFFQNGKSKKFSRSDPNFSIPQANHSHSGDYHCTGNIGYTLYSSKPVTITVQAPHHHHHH
Description: as §1

FcγRIIa(R) = molecular target: T4, FcγRIIa(R) (human, UniProt P12318 34-217)
T4 construct: extracellular domain; also called FcγRIIa R type; 2aR
T4 sequence: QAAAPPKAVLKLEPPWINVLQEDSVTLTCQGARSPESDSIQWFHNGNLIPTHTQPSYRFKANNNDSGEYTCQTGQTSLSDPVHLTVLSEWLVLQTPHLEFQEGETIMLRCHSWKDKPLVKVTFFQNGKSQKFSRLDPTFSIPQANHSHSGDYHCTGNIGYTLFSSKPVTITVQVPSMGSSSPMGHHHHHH
Description: as §1

T2 sequence (P12314 other isoform, or with tags, fused parts or gaps): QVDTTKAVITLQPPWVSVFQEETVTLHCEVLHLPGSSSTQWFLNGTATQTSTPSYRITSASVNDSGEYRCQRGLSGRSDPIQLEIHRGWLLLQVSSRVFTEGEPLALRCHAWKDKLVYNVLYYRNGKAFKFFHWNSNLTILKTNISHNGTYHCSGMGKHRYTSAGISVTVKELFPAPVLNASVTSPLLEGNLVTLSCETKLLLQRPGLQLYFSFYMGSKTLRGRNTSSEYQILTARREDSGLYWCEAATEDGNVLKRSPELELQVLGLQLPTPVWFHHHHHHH

Row | Binder | He/Con 2aH (FcγRIIa(H)) [%] | He/Con 1a (FcγRIa) [%] | He/Con 2b (FcγRIIb) [%] | He/Con 2aR (FcγRIIa(R)) [%]
1 | B1 | 84.1 | 99.2 | 57.8 | 72.4
2 | B2 | 88.1 | 98.8 | 68.9 | 87.2
3 | B3 | 90.1 | 101 | 74.1 | 92.5
4 | B4 | 133 | 104 | 114 | 121
5 | B5 | 98.2 | 104 | 134 | 130
6 | B6 | 94.4 | 108 | 83.4 | 99
7 | B7 | 96.4 | 107 | 89.6 | 109
8 | B8 | 89.4 | 100 | 67.7 | 82.6
9 | B9 | 134 | 103 | 110 | 113
10 | B10 | 97.1 | 97 | 67.8 | 83.5
11 | B11 | 100 | 97.3 | 92 | 98
12 | B12 | 100 | 101 | 172 | 142
13 | B13 | 86.8 | 102 | 71.4 | 90
14 | B14 | 126 | 102 | 131 | 125
15 | B15 | 101 | 106 | 92.3 | 110
16 | B16 | 104 | 103 | 83.2 | 104
